Test [1] concerns the target GLP-2 receptor. In words: cell-based or functional assay.
The target in test [2] is T1, GLP-2 receptor (Homo sapiens, UniProt O95838).
T1 sequence (O95838 1-553): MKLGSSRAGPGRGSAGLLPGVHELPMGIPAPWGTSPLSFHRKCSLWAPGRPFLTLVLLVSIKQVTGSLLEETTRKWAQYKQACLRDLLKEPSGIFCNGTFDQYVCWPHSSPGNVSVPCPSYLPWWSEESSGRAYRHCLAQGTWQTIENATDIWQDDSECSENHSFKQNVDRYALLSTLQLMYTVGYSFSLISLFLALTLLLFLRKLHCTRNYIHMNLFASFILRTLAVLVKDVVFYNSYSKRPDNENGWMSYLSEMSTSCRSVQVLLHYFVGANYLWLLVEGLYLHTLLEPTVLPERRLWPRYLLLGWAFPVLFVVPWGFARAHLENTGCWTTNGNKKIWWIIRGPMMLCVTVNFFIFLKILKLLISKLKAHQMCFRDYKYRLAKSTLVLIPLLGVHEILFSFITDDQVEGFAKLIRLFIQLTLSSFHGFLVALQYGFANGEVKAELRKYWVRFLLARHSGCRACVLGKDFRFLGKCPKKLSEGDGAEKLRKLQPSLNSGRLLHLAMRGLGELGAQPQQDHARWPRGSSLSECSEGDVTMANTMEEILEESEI
In words: Cell-based cAMP potency assay. The following applies: read-out: ECso.

Test [3] concerns Male Sprague Dawley rats. In words: Small intestine weight and histology after eleven-day subcutaneous dosing in rats. It counts as in vivo. As for the experimental part:
Dosing was as follows: Vehicle group dosed with saline daily; PE0503 Q1D dosed with PE0503 at 1.3 mg/kg once per day; PE0503 Q2D dosed with PE0503 at 5.1 mg/kg every other day; PE0503 Q4D dosed with PE0503 at 20.5 mg/kg once every four days; GLP-2(A2G) TID dosed […] with 0.1 mg/kg GLP2(A2G).
Male Sprague Dawley rats (200-220 g, n=12/group) were injected subcutaneously with PE0503 or GLP-2 (A2G) peptide over an eleven-day dosing period as shown in Table 5.
The animals were sacrificed on day 12 and a mid-line incision was made, the small intestines were removed, stretched to their maximum length and measured. The fecal material was then flushed from the lumen and the small intestine weight was recorded.

The subject of test [4] is normal mice (strain FVB/nj). In words: Linear growth of normal mice, daily injection for three weeks. Format: in vivo. The note with it: injected daily for three weeks, mice 3 weeks of age, vs saline; FIG. 3A-C. As for the experimental part:
Effect on growth was determined by measuring nose to tail length (A), nose to anus length (B), and tail length (C). The graphs show the mean change in growth versus baseline over the 3 week period.
The above constructs were injected daily in normal mice (strain FVB/nj) for three weeks. The mice were 3 weeks of age at the start of the experiment. The effect on linear growth of the mice was determined by measuring tail length, nose to anal length and nose to tail length after each week of dosing in comparison to a control group injected with normal saline. […] There was no significant effect on body weight.

In test [1], HGDGSFSDEMNTILDNLAARDFINWLIQTKITD (ligand, part only; not given: ELP carrier, part only) [PE0503] had an EC50, cell-based cAMP potency assay of 1.75 nM.

B1: PE0503: GLP-2 sequence with A2G mutation on the N-terminus of the ELP1-120 sequence (protein)
chain: HGDGSFSDEMNTILDNLAARDFINWLIQTKITDVPGVGVPGVGVPGGGVPGAGVPGVGVPGVGVPGVGVPGGGVPGAGVPGGGVPGVGVPGVGVPGGGVPGAGVPGVGVPGVGVPGVGVPGGGVPGAGVPGGGVPGVGVPGVGVPGGGVPGAGVPGVGVPGVGVPGVGVPGGGVPGAGVPGGGVPGVGVPGVGVPGGGVPGAGVPGVGVPGVGVPGVGVPGGGVPGAGVPGGGVPGVGVPGVGVPGGGVPGAGVPGVGVPGVGVPGVGVPGGGVPGAGVPGGGVPGVGVPGVGVPGGGVPGAGVPGVGVPGVGVPGVGVPGGGVPGAGVPGGGVPGVGVPGVGVPGGGVPGAGVPGVGVPGVGVPGVGVPGGGVPGAGVPGGGVPGVGVPGVGVPGGGVPGAGVPGVGVPGVGVPGVGVPGGGVPGAGVPGGGVPGVGVPGVGVPGGGVPGAGVPGVGVPGVGVPGVGVPGGGVPGAGVPGGGVPGVGVPGVGVPGGGVPGAGVPGVGVPGVGVPGVGVPGGGVPGAGVPGGGVPGVGVPGVGVPGGGVPGAGVPGVGVPGVGVPGVGVPGGGVPGAGVPGGGVPGVGVPGVGVPGGGVPGAGVPGVGVPGVGVPGVGVPGGGVPGAGVPGGGVPGWP
modifications: pPE0503-GLP-2(A2G)-ELP1-120
As for B1, the EC50 in test [2] is 1.75 nM. For the same molecule, the small intestine weight result in test [3] (compared to placebo, day 12, even when dosed every fourth day (Q4D), FIG. 4) is “highly significant increase”. Further, in test [3] (compared to vehicle (saline)), the “villus height (histological analysis of sections of the small intestine)” value is listed as “clear increase”.

B2: PE9306: CNP37 on N-terminus of ELP1-120 with Cathepsin K site 1 (Arg-Lys-Pro-Arg/Gly); SEQ ID NOs: 125 & 126 (protein)
chain: QEHPNARKYKGANKKGLSKGCFGLKLDRIGSMSGLGCRKPRGVPGVGVPGVGVPGGGVPGAGVPGVGVPGVGVPGVGVPGGGVPGAGVPGGGVPGVGVPGVGVPGGGVPGAGVPGVGVPGVGVPGVGVPGGGVPGAGVPGGGVPGVGVPGVGVPGGGVPGAGVPGVGVPGVGVPGVGVPGGGVPGAGVPGGGVPGVGVPGVGVPGGGVPGAGVPGVGVPGVGVPGVGVPGGGVPGAGVPGGGVPGVGVPGVGVPGGGVPGAGVPGVGVPGVGVPGVGVPGGGVPGAGVPGGGVPGVGVPGVGVPGGGVPGAGVPGVGVPGVGVPGVGVPGGGVPGAGVPGGGVPGVGVPGVGVPGGGVPGAGVPGVGVPGVGVPGVGVPGGGVPGAGVPGGGVPGVGVPGVGVPGGGVPGAGVPGVGVPGVGVPGVGVPGGGVPGAGVPGGGVPGVGVPGVGVPGGGVPGAGVPGVGVPGVGVPGVGVPGGGVPGAGVPGGGVPGVGVPGVGVPGGGVPGAGVPGVGVPGVGVPGVGVPGGGVPGAGVPGGGVPGVGVPGVGVPGGGVPGAGVPGVGVPGVGVPGVGVPGGGVPGAGVPGGGVPGVGVPGVGVPGGGVPGAGVPGVGVPGVGVPGVGVPGGGVPGAGVPGGGVPGWP
modifications: CNP37 CatK ELP1-120 fusion PE9306
As to B2, in test [4], the “rate of linear growth (tail length, nose to anal length, nose to tail length)” value is “faster rate of linear growth”.

For the origin of these results see patent US20240294608A1, “ELP FUSION PROTEINS FOR CONTROLLED AND SUSTAINED RELEASE” (ImmunoForge Co., LTD., priority 2016, published 2024).
